# Data: patent US20200188477A1, “A MEDICAMENT FOR THE TREATMENT OF DISEASES BY BIOFILM FORMING MICROORGANISMS” (priority 2017, published 2020)
# Biological target: M. tuberculosis PpiB overexpressed in M. smegmatis (Ms_PpiB Tet+) (Mycobacterium tuberculosis) (UniProt P9WHW1)
# Test: cell-based or functional assay
# Chain of UniProt P9WHW1 (P9WHW1 whole entry): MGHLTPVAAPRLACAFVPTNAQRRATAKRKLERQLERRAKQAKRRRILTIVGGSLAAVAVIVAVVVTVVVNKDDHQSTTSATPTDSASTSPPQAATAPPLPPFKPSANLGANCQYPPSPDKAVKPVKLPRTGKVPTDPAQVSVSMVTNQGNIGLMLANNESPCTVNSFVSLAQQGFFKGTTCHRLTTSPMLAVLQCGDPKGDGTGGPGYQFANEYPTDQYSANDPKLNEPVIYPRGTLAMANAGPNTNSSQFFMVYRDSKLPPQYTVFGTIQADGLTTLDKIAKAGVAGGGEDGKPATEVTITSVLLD
substance,measurement,value
cyclosporine A (peptide),"biofilm formation (crystal violet assay, absorbance at 550 nm)",> 100 µg/mL
